Assay results: the supplement of paper PMC9732359
± gives the uncertainty stated by the source.

Experiment: protein stability index of a GFP-peptide fusion (yeast GPS) (PSI 1-4); higher = more stable; sorted into four equal gates, so the index is relative within each strain
Summary of the method: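 Yeast carrying a pooled library were grown to mid-log phase in leucine-free medium. Each library plasmid expresses Cherry and has a tiled 17-residue yeast protein peptide fused downstream of GFP. Cells were sorted into four equal gates by GFP/Cherry ratio, and plasmids from each gate were PCR-amplified, Illumina-sequenced and assigned to strains by barcode. Summing, across gates, the read frequency times the gate number gave each peptide's protein stability index.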

Sequence | protein stability index (doa10∆) | protein stability index (pdr5∆) | protein stability index (san1∆) | protein stability index (ubr1∆)
ILIESRIHRLARYYRTV [RPS13] | 2.45 ± 0.11 | 2.06 ± 0.06 | 2.74 ± 0.087 | 2.1 ± 0.051
SNESQNGKDSEIMYTGV [SMC3] | 3.46 ± 0.14 | 3.13 ± 0.27 | 3.03 ± 0.19 | –
NNPLVQKKNFLFKPLNK [ARP7] | 2.33 ± 0.23 | 2.51 ± 0.14 | 2.2 ± 0.28 | –
AHMSIGCLHKGKLISNL [YML031W/NDC1] | 2.04 ± 0.079 | 1.9 ± 0.058 | 2.14 ± 0.15 | 1.83 ± 0.065
LLLKDQQTAKKLIPKLY [ECM29] | 2.1 ± 0.054 | 2.46 ± 0.061 | 2.32 ± 0.096 | 1.66 ± 0.053
LAKIKEEEMAPYYKYLC [RPN7] | 1.28 ± 0.091 | 1.74 ± 0.25 | – | 1.37 ± 0.2
RKVSGPRALQPSQFGML [RET1] | 2.36 ± 0.089 | 1.67 ± 0.059 | 2.46 ± 0.12 | 2.56 ± 0.09
NNSALSNVNSDIYFKLK [RPT3] | 3.12 ± 0.14 | 2.96 ± 0.12 | 3.27 ± 0.14 | 3.25 ± 0.073
YKVDAEGKVTKLRRECS [RPS31] | 2.68 ± 0.12 | 2.92 ± 0.14 | 2.67 ± 0.12 | 3.22 ± 0.078
MLSILEIFKKGYIKNNK [POP6] | 2.63 ± 0.11 | 2.84 ± 0.091 | 3 ± 0.097 | 3.08 ± 0.1
NLFPLKPKMLPIPSKPT [SRP68] | 2.38 ± 0.11 | 2.55 ± 0.093 | 2.43 ± 0.16 | 2.61 ± 0.081
KPGIPRGNTKIHSMNEN [SIR3] | 3.23 ± 0.2 | 2.9 ± 0.22 | 3.32 ± 0.098 | 3.23 ± 0.12
TKENLEVSGENVVEADL [QCR2] | 3.33 ± 0.27 | 3.6 ± 0.09 | 3.52 ± 0.1 | 2.8 ± 0.14
HCDKCSVVLTLQAFGES [RPB3] | 3.1 ± 0.15 | 3.19 ± 0.14 | 2.47 ± 0.19 | 2.6 ± 0.17
ITSINVENDTFIERNFT [FAS2] | 3.01 ± 0.089 | 2.68 ± 0.081 | 3.17 ± 0.072 | 3.19 ± 0.05
KLLGVDMQSSVDTGLQP [YLR018C/POM34] | 3.17 ± 0.077 | 3.12 ± 0.067 | 3.1 ± 0.062 | 3.14 ± 0.053
LEMSTEDFVKLAPARVR [RPS15] | 2.83 ± 0.13 | 3.05 ± 0.1 | 3.07 ± 0.065 | 2.78 ± 0.07
KSLDKKIAKRRQVYKPV [POP3] | 3.25 ± 0.21 | 3.09 ± 0.15 | 2.54 ± 0.23 | 3.5 ± 0.2
KRELLKRYRLKESQLPR [RPB5] | 3.19 ± 0.2 | 3.29 ± 0.14 | – | 3.58 ± 0.14
VVDGTVVSCSQHGFEVQ [RPB7] | 3.08 ± 0.071 | 3.11 ± 0.058 | 3.13 ± 0.068 | 3.28 ± 0.07
LIRFDESITKAMEFIFG [SMC2] | 2.45 ± 0.082 | 2.52 ± 0.17 | 2.35 ± 0.16 | –
DRSKLKKGVRVTLDITT [RPT4] | – | 2.87 ± 0.2 | 2.4 ± 0.089 | 2.57 ± 0.14
LPKLNLPKYQTIQYDPP [SNF5] | 2.53 ± 0.22 | 2.6 ± 0.11 | 2.31 ± 0.16 | 2.11 ± 0.084
LNGILADEMGLGKTIQT [SNF2] | 2.91 ± 0.11 | 2.67 ± 0.1 | 3.29 ± 0.066 | 2.56 ± 0.095
MFNPLHESYCLPMDTNL [YMR129W/POM152] | 2.39 ± 0.059 | 2.83 ± 0.055 | 2.75 ± 0.058 | 2.36 ± 0.056
EDILQGIFNLLNTLFNP [NUT1] | 2.23 ± 0.052 | 2.35 ± 0.055 | 2.41 ± 0.078 | 2.3 ± 0.075
